Patent publication US7105484 (Genentech, dated 2006)

Target: T1, GDNFRα (full length, GPI-linked, expressed on cells) (rat, UniProt Q62997 25-430)
T1 construct: also called GDNF receptor α; recombinant GDNFRα
T1 sequence: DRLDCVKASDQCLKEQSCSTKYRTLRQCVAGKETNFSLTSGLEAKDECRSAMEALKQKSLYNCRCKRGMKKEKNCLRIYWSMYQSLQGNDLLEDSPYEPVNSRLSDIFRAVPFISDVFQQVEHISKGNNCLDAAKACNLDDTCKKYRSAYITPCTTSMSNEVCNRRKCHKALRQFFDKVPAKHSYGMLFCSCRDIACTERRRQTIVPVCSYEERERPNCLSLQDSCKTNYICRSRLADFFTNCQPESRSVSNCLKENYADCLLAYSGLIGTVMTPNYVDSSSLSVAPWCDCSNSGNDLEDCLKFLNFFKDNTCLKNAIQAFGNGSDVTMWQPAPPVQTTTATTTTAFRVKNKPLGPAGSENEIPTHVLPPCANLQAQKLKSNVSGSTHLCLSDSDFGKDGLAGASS
Experiment: competition binding of 50 pM 125I GDNF against cold GDNF on CHO cells stably expressing GDNFRα; Scatchard analysis, IGOR program
Description: Competition binding experiments further indicate that GDNF binds specifically and reversibly to GDNFRα expressing cells. […] The IGOR program was used to determine K_d.

B1: GDNF (Glial-cell Derived Neurotrophic Factor) (ligand)
chain: SPDKQMAVLPRRERNRQAAAANPENSRGKGRRGQRGKNRGCVLTAIHLNVTDLGLGYETKEELIFRYCSGSCDAAETTYDKILKNLSRNRRLVSDKVGQACCRPIAFDDDLSFLDDNLVYHILRKHSAKRCGCI
modifications: The tracer form is 125I-iodinated, and the iodinated residues are not stated. Per our card (not shown to me), active GDNF is a disulfide-bonded homodimer; one protomer is given.
B1 showed a Kd of about 0.063 nM.
